Data from patent US20230106715A1 (BIOSION, published 2023).
Read-outs that look alike come from different tables or passages of the source.

Assays:
[1] = molecular target: T1, human Siglec15 on human-siglec15-2D3-1E1 cells (human, UniProt Q6ZMC9 20-328); assay: cell based binding FACS on human-siglec15-2D3-1E1 cells
T1 construct: whole, on cells; Transfected HEK-293 cells; also called cell surface human Siglec15
T1 sequence (looked up): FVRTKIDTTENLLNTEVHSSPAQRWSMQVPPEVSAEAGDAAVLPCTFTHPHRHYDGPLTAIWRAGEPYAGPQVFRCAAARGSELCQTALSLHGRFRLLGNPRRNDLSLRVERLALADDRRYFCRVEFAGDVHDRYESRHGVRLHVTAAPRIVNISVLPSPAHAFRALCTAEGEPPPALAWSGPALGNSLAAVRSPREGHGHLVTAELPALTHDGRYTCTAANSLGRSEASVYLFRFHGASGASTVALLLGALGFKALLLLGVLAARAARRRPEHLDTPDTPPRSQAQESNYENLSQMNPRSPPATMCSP
Description: The binding activities of the anti-Siglec15 antibodies to cell surface Siglec15 were tested by flow cytometry (FACS), using in-house prepared human-siglec15-2D3-1E1 cells expressing human Siglec15 (amino acid residues Met1-Pro328 of uniprot #Q6ZMC9) on cell membranes. The human-siglec15-2D3-1E1 cells were prepared by transfecting HEK-293 cells (ATCC #CRL-1573) with pCMV-T-P plasmids inserted with human Siglec15 coding sequence between EcoRI and XbaI sites, following the instruction of lipofectamine 3000 transfection reagent (Thermo Fisher). The human-siglec15-2D3-1E1 cells were harvested from cell culture flasks, washed twice and re-suspended in phosphate buffered saline (PBS) containing 2% v/v Fetal Bovine Serum (FACS buffer). 2×10⁵ cells per well in 96 well-plates were incubated in 100 μL serially diluted anti-Siglec15 antibodies or controls (starting at 66.67 nM, 5-fold serial dilution) in FACS buffer for 40 minutes on ice. […] Following a 40-minute incubation at 4° C. in dark, cells were washed three times and re-suspended in FACS buffer. Fluorescence was measured using a Becton Dickinson FACS Canto II-HTS equipment. Data was analyzed using Graphpad Prism software and EC₅₀ values were reported.

[2] = molecular target: T2, cynomolgus monkey Siglec15-his protein (cynomolgus monkey); assay: indirect ELISA on coated cynomolgus Siglec15-his
T2 construct: In house made; also called Cynomolgus Siglec15-his; cynomolgus Siglec15
T2 chain: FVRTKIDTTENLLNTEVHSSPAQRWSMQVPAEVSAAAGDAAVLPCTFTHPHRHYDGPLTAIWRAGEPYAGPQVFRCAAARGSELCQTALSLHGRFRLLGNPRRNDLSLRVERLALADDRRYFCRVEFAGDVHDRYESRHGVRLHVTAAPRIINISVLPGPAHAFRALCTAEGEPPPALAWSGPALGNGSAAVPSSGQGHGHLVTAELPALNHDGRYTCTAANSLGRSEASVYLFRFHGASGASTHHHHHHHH
Description: (§1) The anti-Siglec15 antibodies' cross-reactions to cynomolgus or mouse Siglec15 proteins were measured. Briefly, 96-well micro plates were coated with 100 μl of 2 μg/ml cynomolgus Siglec15-his protein (in house made with SEQ ID NO: 21), or 2 μg/ml mouse Siglec15-his protein (in house made with SEQ ID NO: 22) in carbonate/bicarbonate buffer (pH 9.6) for 2 hours at 37° C. ELISA plates were washed once with wash buffer (PBS+0.05% v/v Tween-20, PBST) and then blocked with 200 μl/well blocking buffer (5% w/v non-fatty milk in PBST) overnight at 4° C. Plates were washed 4 times and incubated with 100 μl serially diluted anti-Siglec15 antibodies of the disclosure or controls (starting at 66.7 nM, 5-fold serial dilution in PBST with 2.5% w/v non-fatty milk) for 40 minutes at 37° C. […] The reaction was stopped 4 minutes later at room temperature with 50 μl 1M H₂SO₄, and the absorbance of each well was read on a microplate reader using dual wavelength mode with 450 nm for TMB and 630 nm as the reference wavelength, then the OD (450-630) values were plotted against antibody concentration. Data was analyzed using Graphpad Prism software and EC₅₀ values were reported.

[3] = molecular target: T3, human Siglec15-Fc protein (human); assay: competitive ELISA: biotin-labeled human Siglec15-Fc in solution, competitor coated benchmark; falling curve, table row is labelled EC50
T3 construct: In house made; also called recombinant human Siglec15 protein with human IgG1 Fc at the C-terminus
T3 sequence (chain, as listed by the source limits assumed): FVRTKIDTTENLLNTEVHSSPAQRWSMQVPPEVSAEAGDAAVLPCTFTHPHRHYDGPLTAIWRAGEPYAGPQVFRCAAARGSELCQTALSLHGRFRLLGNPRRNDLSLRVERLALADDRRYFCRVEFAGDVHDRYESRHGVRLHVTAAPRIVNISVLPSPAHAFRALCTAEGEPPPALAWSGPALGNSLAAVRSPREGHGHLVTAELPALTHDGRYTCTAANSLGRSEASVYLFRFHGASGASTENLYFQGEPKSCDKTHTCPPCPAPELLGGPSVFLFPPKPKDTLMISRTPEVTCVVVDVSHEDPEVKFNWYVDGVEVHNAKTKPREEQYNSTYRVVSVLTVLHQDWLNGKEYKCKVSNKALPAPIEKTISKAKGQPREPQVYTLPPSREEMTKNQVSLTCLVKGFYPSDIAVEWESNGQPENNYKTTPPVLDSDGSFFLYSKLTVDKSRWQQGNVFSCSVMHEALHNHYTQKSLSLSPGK
Description: The abilities of the anti-Siglec15 antibodies of the disclosure to block benchmark-human Siglec15 binding were measured in a competitive ELISA assay. Briefly, the benchmark was coated on 96-well micro plates at 2 μg/mL in PBS, 100 μl per well, and incubated for 2 hours at 37° C. Then plates were washed once with wash buffer, and blocked with 5% w/v non-fatty milk in PBST overnight at 4° C. The next day, the anti-Siglec15 antibodies of the disclosure or controls were diluted with biotin labeled human Siglec15-Fc protein (prepared in-house with SEQ ID NO: 19, 37 ng/ml in PBST with 2.5% w/v non-fatty milk), starting at 80 nM with a 4-fold serial dilution, and incubated at room temperature for 40 minutes. After plate washing 4 times, the antibody/Siglec15-Fc mixtures were added to benchmark coated plates, 100 μl per well. After incubation at 37° C. for 40 minutes, plates were washed 4 times again using wash buffer. Then the plates were added and incubated with 100 μl/well streptavidin conjugated HRP for 40 minutes at 37° C. […] Finally, TMB was added and the reaction was stopped using 1M H₂SO₄, and the absorbance of each well was read on a microplate reader using dual wavelength mode with 450 nm for TMB and 630 nm as the reference wavelength, then the OD (450-630) values were plotted against antibody concentration. Data was analyzed using Graphpad Prism software and IC₅₀ values were reported.

[4] = molecular target: T2, cynomolgus monkey Siglec15-his protein; assay: indirect ELISA on coated cynomolgus Siglec15-his
Description: as §1

B1: anti-Siglec15 benchmark (ch5G12) (antibody, human IgG1, kappa, V domains shown)
VH: QVQLQQPGAELVKPGASVKMSCKASGYTFTSYWITWVIQRPGQGLEWIGDIYCGSDTMHYNEKFKNKATLTVDTSSSTAYMQLSSLTSEDSAVYYCARWWDYGSSYDYFDYWGQGTTLTVSS
VL: DIKMTQSPSSMYASLGERVTITCKASQDINSYLSWFQQKPGKSPKTLIYRANRLVDGVPSRFSGSGSGQDYSLTISSLEYEDMGIYYCLQYDEFPYTFGGGTKLEIKR
notes: ch5G12 (US 20190202912A1); also called BM; Siglec15-ch5G9
[1]
  EC50: 19.8 nM
[2]
  EC50: 0.307 nM
[3]
  IC50: 0.486 nM
[4]
  EC50: 0.461 nM
